Experimental data reported in US20040126856A1, “Factor ixa: factor Vllla interaction and methods therefor” (priority 2004, published 2004).

Key:
[1] = target: T1, A2 subunit of factor VIIIa (Homo sapiens, UniProt P00451); test: Apparent KdA2 of dEGR-IXa proteins: inhibition of IXaWT:A2 subunit interaction in the tenase system; type: biochemical; conditions: for Kd: values from FIG. 3, read-out: App KdA2; for ΔG°A2: ΔG° = RTlnKd, 298 Kelvin
T1 construct: cleaved by thrombin at R372-S373, R740-S741, and R1689-S1690 to yield factor VIIIa
T1 sequence (P00451 392-759): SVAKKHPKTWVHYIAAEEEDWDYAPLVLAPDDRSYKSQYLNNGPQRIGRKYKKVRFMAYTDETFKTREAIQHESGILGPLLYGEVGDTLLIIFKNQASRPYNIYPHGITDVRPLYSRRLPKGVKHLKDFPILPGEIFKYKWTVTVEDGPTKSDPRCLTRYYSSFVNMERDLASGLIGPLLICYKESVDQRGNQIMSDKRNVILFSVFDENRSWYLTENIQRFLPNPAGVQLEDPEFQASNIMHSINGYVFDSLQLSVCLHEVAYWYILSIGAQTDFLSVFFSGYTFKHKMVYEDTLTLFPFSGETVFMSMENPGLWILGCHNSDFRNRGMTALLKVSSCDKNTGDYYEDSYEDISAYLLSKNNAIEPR
Method: Determination of KdA2 of Binding of dEGR-IXa Proteins to A2 Subunit.
The apparent Kd (termed KdA2) for binding of each dEGR-IXa protein to the A2 subunit was determined by its ability to inhibit factor IXaWT:A2 subunit interaction in the tenase complex as described earlier for intact factor VIIIa (Mather and Bajaj, 1999; Mather et al., 1997). The reactions were carried out as described for the EC50 experiments above except dEGR-IXa and IXaWT were mixed prior to addition of the A2 subunit; this ensured steady state conditions. Mixtures contained 100 nM IXaWT, 30 nM A2 subunit, 250 nM factor X, 25 μM PL, and various concentrations of dEGR-IXa proteins in TBS/BSA, pH 7.5 containing 5 mM CaCl2. The IC50 (concentration of inhibitor required for 50% inhibition) was determined by fitting the data to the IC50 four-parameter logistic equation of Halfman (1981) given below (Eq. 2). [formula]
where y is the rate of Xa formation in the presence of a given concentration of dEGR-IXa protein represented by x, a is the maximum rate of factor Xa formation in the absence of dEGR-IXa, and s is the slope factor. Each point was weighted equally, and the data were fitted to Equation 2 using the nonlinear regression analysis program GraFit from Erithacus Software. […] To obtain KdA2 values for the interaction of dEGR-IXa proteins with A2, we used the following equation (Eq. 3) as described by Cheng and Prusoff (1973) and further elaborated by Craig (1993). [formula]
where A is the concentration of IXaWT, and EC50 is the concentration of factor IXaWT that gives a 50% maximum response in the absence of the competitor at a specified concentration of factor X used in the experiment.

A2 558-565 peptide = target: T2, A2 558-565 peptide (Homo sapiens, UniProt P00451); test: Apparent Kdpeptide of binding of each factor IXa to the A2 558-565 peptide; type: biochemical; conditions: for Kd: values from FIG. 5, A2 558-565 peptide, read-out: App Kdpeptide; for ΔG°peptide: ΔG° = RTlnKd, 298 Kelvin
T2 construct: made in house; host or cells: chemical synthesis (synthetic peptide)
Method: Determination of the Apparent Kdpeptide of Binding of Each Factor IXa to the A2 558-565 Peptide.
The apparent Kd (termed Kdpeptide) for binding of each factor IXa to the A2 558-565 peptide was determined by its ability to inhibit the respective IXa:A2 subunit interaction as measured by reduction in the rate of factor X activation in the tenase system. The reaction mixtures for both IXaWT and IXaPCEGF1 contained 100 nM factor IXa, 30 nM A2 subunit, 250 nM factor X, and 25 μM PL in TBS/BSA, pH 7.5 with 5 mM CaCl2. The reaction mixture for IXaR333Q contained 300 nM factor IXa instead of 100 nM used for IXaWT or IXaPCEGF1; concentrations of other components were the same. The amount of factor Xa generated was determined by hydrolysis of S-2222. The IC50 values were obtained using Eq. 2. Here, y is the rate of factor Xa formation in the presence of a given concentration of the A2 558-565 peptide represented by x, and a is the maximum rate of factor Xa formation in the absence of the A2 peptide. Eq. 3 was then used to obtain the apparent Kdpeptide values. In this context, A is the concentration of IXaWT, IXaPCEGF1, or IXaR333Q, and EC50 is the apparent KdA2 for the respective IXa:A2 subunit interaction.

| Substance | Change in ΔG°A2 between the mutant and WT [1] [kcal/mol] | Fold-change in apparent KdA2 (mutant/WT) [1] | Kd [1] [nM] | ΔG°A2 [1] [kcal/mol] | Change in ΔG°peptide between the mutant and WT (A2 558-565 peptide) [kcal/mol] | Fold-change in apparent Kdpeptide (mutant/WT) (A2 558-565 peptide) | Kd (A2 558-565 peptide) [nM] | ΔG°peptide (A2 558-565 peptide) [kcal/mol] |
| --- | --- | --- | --- | --- | --- | --- | --- | --- |
| IXaR333Q: activated factor IX point mutant in which Arg333 is replaced by Gln | 1.72 | ~15 | 1850 ± 82 | 7.82 | 1.62 | ~15 | 62000 ± 9000 | 5.74 |
| IXaWT: activated recombinant wild-type factor IX (IXWT) |  |  | 100 ± 11 | 9.54 |  |  | 4000 ± 1000 | 7.36 |
